Experimental data reported in patent US20250002557A1.

Biological target: T1, PDGF-CC, Q9NRA1
T1 chain: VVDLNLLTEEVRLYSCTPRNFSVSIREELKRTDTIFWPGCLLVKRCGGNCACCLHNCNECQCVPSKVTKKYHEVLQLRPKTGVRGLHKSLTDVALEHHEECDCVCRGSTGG
Assay: SPR, PDGF coupled to CM5 chip, VEGFR2-Fc in flow
Settings: remark: other sources report otherwise

Kd: 73.6 nM
B1: VEGFR2-Fc (Met1-Glu764), P35968 20-764 (Fc fusion, not shown: a dimerising Fc or GST)
chain: ASVGLPSVSLDLPRLSIQKDILTIKANTTLQITCRGQRDLDWLWPNNQSGSEQRVEVTECSDGLFCKTLTIPKVIGNDTGAYKCFYRETDLASVIYVYVQDYRSPFIASVSDQHGVVYITENKNKTVVIPCLGSISNLNVSLCARYPEKRFVPDGNRISWDSKKGFTIPSYMISYAGMVFCEAKINDESYQSIMYIVVVVGYRIYDVVLSPSHGIELSVGEKLVLNCTARTELNVGIDFNWEYPSSKHQHKKLVNRDLKTQSGSEMKKFLSTLTIDGVTRSDQGLYTCAASSGLMTKKNSTFVRVHEKPFVAFGSGMESLVEATVGERVRIPAKYLGYPPPEIKWYKNGIPLESNHTIKAGHVLTIMEVSERDTGNYTVILTNPISKEKQSHVVSLVVYVPPQIGEKSLISPVDSYQYGTTQTLTCTVYAIPPPHHIHWYWQLEEECANEPSQAVSVTNPYPCEEWRSVEDFQGGNKIEVNKNQFALIEGKNKTVSTLVIQAANVSALYKCEAVNKVGRGERVISFHVTRGPEITLQPDMQPTEQESVSLWCTADRSTFENLTWYKLGPQPLPIHVGELPTPVCKNLDTLWKLNATMFSNSTNDILIMELKNASLQDQGDYVCLAQDRKTKKRHCVVRQLTVLERVAPTITGNLENQTTSIGESIEVSCTASGNPPPQIMWFKDNETLVEDSGIVLKDGNRNLTIRRVRKEDEGLYTCQACSVLGCAKVEAFFIIEGAQEKTNLE
